Here are results for five molecules from US10772928B2, “Modulation and detection of a neuronal alternative splicing regulatory network for treatment and diagnosis of neurological disorders” (The Governing Council of the University of Toronto, priority 2014, dated 2020).

T1: nSR100 (Mus musculus, UniProt Q8BKA3)
T1 construct: host or cells: mouse N2A cells
T1 sequence (Q8BKA3 1-608): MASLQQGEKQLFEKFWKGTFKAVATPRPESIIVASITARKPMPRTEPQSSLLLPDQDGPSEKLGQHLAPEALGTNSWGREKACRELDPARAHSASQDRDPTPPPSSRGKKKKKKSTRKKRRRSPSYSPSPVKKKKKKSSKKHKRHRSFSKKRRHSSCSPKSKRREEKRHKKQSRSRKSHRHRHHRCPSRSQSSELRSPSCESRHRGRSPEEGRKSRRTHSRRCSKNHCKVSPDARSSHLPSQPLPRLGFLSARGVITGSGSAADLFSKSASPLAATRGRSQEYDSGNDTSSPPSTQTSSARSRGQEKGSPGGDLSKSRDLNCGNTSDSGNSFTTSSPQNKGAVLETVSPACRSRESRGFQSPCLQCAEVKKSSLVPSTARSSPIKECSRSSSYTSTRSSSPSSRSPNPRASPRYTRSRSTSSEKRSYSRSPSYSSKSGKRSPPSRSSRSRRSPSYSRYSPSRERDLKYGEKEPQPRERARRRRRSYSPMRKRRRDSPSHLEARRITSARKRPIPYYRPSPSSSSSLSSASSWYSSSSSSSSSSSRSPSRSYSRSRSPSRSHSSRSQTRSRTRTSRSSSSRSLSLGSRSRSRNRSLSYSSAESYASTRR

B1: Tpi1 (protein, UniProt P17751 2-249, looked up)
Triosephosphate isomerase: APTRKFFVGGNWKMNGRKKCLGELICTLNAANVPAGTEVVCAPPTAYIDFARQKLDPKIAVAAQNCYKVTNGAFTGEISPGMIKDLGATWVVLGHSERRHVFGESDELIGQKVSHALAEGLGVIACIGEKLDEREAGITEKVVFEQTKVIADNVKDWSKVVLAYEPVWAIGTGKTATPQQAQEVHEKLRGWLKSNVNDGVAQSTRIIYGGSVTGATCKELASQPDVDGFLVGGASLKPEFVDIINAKQ
B2: Cwc27 (protein, UniProt Q3TKY6 2-469, looked up)
Spliceosome-associated …: SNIYIQEPPTNGKVLLKTTAGDIDIELWSKEAPKACRNFIQLCLEAYYDNTIFHRVVPGFIVQGGDPTGTGTGGESIYGAPFKDEFHSRLRFNRRGLVAMANAGPHDNGSQFFFTLGRADELNNKHTIFGKVTGDTVYNMLRLTEVDIDDEERPRNPHRIKSCEVLFNPFDDITPREIKKPKNEKPEEEVKKLKPKGTKNFSLLSFGEEAEEEEEEVNRVSQSMKGRSKSSHDLLKDDPHLSSVPAVESEKDDATGDLEDDGEDDSAERDEYMEDDEKNLMRERIAKRLKKDASASVKSAGDGEKKPASRSEELRKEARQLKRELLAAKQKKETAIKVEEGREEEEAAPDGAVAEYRREKQKYEALRKQQPKKGTSREDQTLALLSQFKSKLTQAITETPENSVPEAEVEDDEGWMSHVLQFEDKTRKVKDASMQDSDTFEIYDPRNPVNKRRREESKKLLREKKERR
B3: Cyfip1 (protein, UniProt Q7TMB8 1-1253, looked up)
Cytoplasmic FMR1-interacting …: MAAQVTLEDALSNVDLLEELPLPDQQPCIEPPPSSLLYQPNFNTNFEDRNAFVTGIARYIEQATVHSSMNEMLEEGQEYAVMLYTWRSCSRAIPQVKCNEQPNRVEIYEKTVEVLEPEVTKLMNFMYFQRNAIERFCGEVRRLCHAERRKDFVSEAYLITLGKFINMFAVLDELKNMKCSVKNDHSAYKRAAQFLRKMADPQSIQESQNLSMFLANHNKITQSLQQQLEVISGYEELLADIVNLCVDYYENRMYLTPSEKHMLLKVMGFGLYLMDGSVSNIYKLDAKKRINLSKIDKYFKQLQVVPLFGDMQIELARYIKTSAHYEENKSRWTCASSSSSPQYNICEQMIQIREDHMRFISELARYSNSEVVTGSGRQEAQKTDAEYRKLFDLALQGLQLLSQWSAHVMEVYSWKLVHPTDKYSNKDCPDNAEEYERATRYNYTTEEKFALVEVIAMIKGLQVLMGRMESVFNHAIRHTVYAALQDFSQVTLREPLRQAIKKKKNVIQSVLQAIRKTVCDWETGHEPFNDPALRGEKDPKSGFDIKVPRRAVGPSSTQLYMVRTMLESLIADKSGSKKTLRSSLEGPTILDIEKFHRESFFYTHLINFSETLQQCCDLSQLWFREFFLELTMGRRIQFPIEMSMPWILTDHILETKEASMMEYVLYSLDLYNDSAHYALTKFNKQFLYDEIEAEVNLCFDQFVYKLADQIFAYYKVMAGSLLLDKRLRSECKNQGATIHLPPSNRYETLLKQRHVQLLGRSIDLNRLITQRVSAAMYKSLELAIGRFESEDLTSVVELDGLLEINRMTHKLLSRYLTLDSFDAMFREANHNVSAPYGRITLHVFWELNYDFLPNYCYNGSTNRFVRTVLPFSQEFQRDKQPNAQPQYLHGSKALNLAYSSIYGSYRNFVGPPHFQVICRLLGYQGIAVVMEELLKVVKSLLQGTILQYVKTLMEVMPKICRLPRHEYGSPGILEFFHHQLKDIVEYAELKTVCFQNLREVGNAVLFCLLIEQSLSLEEVCDLLHAAPFQNILPRIHVKEGERVDAKMKRLESKYAPLHLVPLIERLGTPQQIAIAREGDLLTKERLCCGLSMFEVILTRIRTFLDDPIWRGPLPSNGVMHVDECVEFHRLWSAMQFVYCIPVGTHEFTVEQCFGDGLHWAGCMIIVLLGQQRRFAVLDFCYHLLKVQKHDGKDEIIKNVPLKKMVERIRKFQILNDEIITILDKYLKSGDGESTPVEHVRCFQPPIHQSLASS
B4: Tfip11 (protein, UniProt Q9ERA6 1-838, looked up)
Tuftelin-interacting protein …: MSLSHLYRDGEGHLDDDDDDERENFEITDWDLQNEFNPNRQRHWQTKEEATYGVWAERDSDEERPSFGGKRARDYSAPVNFISAGLKKGAAEEADSEDSDAEEKPVKQEDFPKDLGPKKLKTGGNFKPSQKGFSGGTKSFMDFGSWERHTKGIGQKLLQKMGYVPGRGLGKNAQGIINPIEAKQRKGKGAVGAYGSERTTQSLQDFPVADSEEEAEEEFQKELSQWRKDPSGSKKKPKYSYKTVEELKAKGRVSKKLTAPQKELSQVKVIDMTGREQKVYYSYSQISHKHSVPDEGVPLLAQLPPTAGKEARMPGFALPELEHNLQLLIERTEQEIIQSDRQLQYERDMVVSLSHELEKTAEVLAHEERVISNLSKVLALVEECERRMQPHGADPLTLDECARIFETLQDKYYEEYRLADRADLAVAIVYPLVKDYFKDWHPLEDGSYGTQIISKWKSLLENDQLLSHSSQDLSSDAFHRLMWEVWMPFVRNVVAQWQPRNCEPMVDFLDSWAHIIPVWILDNILDQLIFPKLQKEVDNWNPLTDTVPIHSWIHPWLPLMQARLEPLYSPVRSKLSSALQKWHPSDASAKLILQPWKEVLTPGSWEAFMLRNIVPKLGMCLGELVINPHQQHMDAFYWVMDWEGMISVSSLVGLLEKHFFPKWLQVLCSWLSNSPNYEEITKWYLGWKSMFSDQVLAHPSVKDKFNEALDIMNRAVSSNVGAYMQPGARENIAYLTHTERRKDFQYEAMQERREAENMAQRGIGVAASSVPMNFKDLIETKAEEHNIVFMPVIGKRHEGKQLYTFGRIVIYIDRGVVFVQGEKTWVPTSLQSLIDMAK
B5: Cdk11b (protein, UniProt P24788 1-784, looked up)
Cyclin-dependent kinase 11B: MGDEKDSWKVKTLDEILQEKKRRKEQEEKAEIKRLKNSDDRDSKRDSLEEGELRDHRMEITIRNSPYRREDSMEDRGEEDDSLAIKPPQQMSRKEKAHHRKDEKRKEKRRHRSHSAEGGKHARVKEKEREHERRKRHREEQDKARREWERQKRREMAREHSRRERDRLEQLERKRERERKLREQQKEQREQKERERRAEERRKEREARREVSAHHRTMREEYSDKGKVGHWSRSPLRPPRERFEMGDNRKPVKEEKVEERDLLSDLQDISDSERKTSSAESSSAESGSGSEEEEEEEEEEEEEEGSTSEESEEEEEEEEEEEEEETGSNSEEASEQSAEEVSDEEMSEDEDRENENHILVVPESRFDRDSGDSEEGEEEVGEGTPQSSAPTEGDYVPDSPALSPIELKQELPKYLPALQGCRSVEEFQCLNRIEEGTYGVVYRAKDKKTDEIVALKRLKMEKEKEGFPITSLREINTILKAQHPNIVTVREIVVGSNMDKIYIVMNYVEHDLKSLMETMKQPFLPGEVKTLMIQLLSGVKHLHDNWILHRDLKTSNLLLSHAGILKVGDFGLAREYGSPLKAYTPVVVTLWYRAPELLLGAKEYSTAVDMWSVGCIFGELLTQKPLFPGKSDIDQINKIFKDLGTPSEKIWPGYNDLPAVKKMTFSEYPYNNLRKRFGALLSDQGFDLMNKFLTYYPGRRINAEDGLKHEYFRETPLPIDPSMFPTWPAKSEQQRVKRGTSPRPPEGGLGYSQLGDDDLKETGFHLTTTNQGASAAGPGFSLKF

One test has as its target T1, nSR100. The experiment in a line: AP-MS nSR100 interaction partners from mouse N2A cells (Table 5). It counts as binding. Particulars: bait Srrm4.
Source text: By applying affinity purification coupled to mass-spectrometry (AP-MS), several interaction nSR100 partner proteins were detected that provide insight into mechanisms of post-translational regulation of nSR100 levels.
As to B1, the “AvgP (average of the SAINT scores)” value stood at 0.87 and the “MaxP (maximal SAINT score)” value is reported as 0.87.

Regarding B2, the “AvgP (average of the SAINT scores)” value came out at 1 and the “MaxP (maximal SAINT score)” value was 1.

For B3, the “AvgP (average of the SAINT scores)” value was found to be 0.89 and the “MaxP (maximal SAINT score)” value was found to be 1.

For the molecule B4, the “AvgP (average of the SAINT scores)” value is 1 and the “MaxP (maximal SAINT score)” value turned out to be 1.

In the case of B5, the “AvgP (average of the SAINT scores)” value is reported as 0.9 and the “MaxP (maximal SAINT score)” value amounted to 0.98.

Staying with this test, now noted: bait Srrm4, 0.1 added to prevent division by 0.
Regarding B1, the “FoldChange between the prey Avg spectra of the bait and control purifications” value (from here on “FoldChange between the prey Avg spectra”) worked out at 3.33.

In the case of B2, the “FoldChange between the prey Avg spectra” value is on record as 85.

Consider B3, for which the “FoldChange between the prey Avg spectra” value is 5.5.

Turning to B4, the “FoldChange between the prey Avg spectra” value was 40.

B5: the “FoldChange between the prey Avg spectra” value came to 3.43.

The same test, now with this note: bait Srrm4, 2 replicates.
B1: the “AvgSpec (average number of spectra per replicate)” value is 10.

In the case of B2, the “AvgSpec (average number of spectra per replicate)” value was determined as 8.5.

With B3, the “AvgSpec (average number of spectra per replicate)” value was found to be 11.

Take B4: the “AvgSpec (average number of spectra per replicate)” value was determined as 4.

B5: the “AvgSpec (average number of spectra per replicate)” value turned out to be 12.

The same test, now with this note: bait Srrm4, biological replicate 1 (first number of the cell), AP-MS.
For B1, the “Spectra (number of spectra for the prey in the purification of the bait)” value is listed as 10|10.

For the molecule B2, the “Spectra (number of spectra for the prey in the purification of the bait)” value is 6.

B3: the “Spectra (number of spectra for the prey in the purification of the bait)” value is reported as 7.

B4: the “Spectra (number of spectra for the prey in the purification of the bait)” value turned out to be 5.

Take B5: the “Spectra (number of spectra for the prey in the purification of the bait)” value turned out to be 13.

The same test, now with this note: bait Srrm4, biological replicate 2 (second number of the cell), AP-MS.
B1: the “Spectra (number of spectra for the prey in the purification of the bait)” value is reported as 10|10.

For the molecule B2, the “Spectra (number of spectra for the prey in the purification of the bait)” value is 11.

For the molecule B3, the “Spectra (number of spectra for the prey in the purification of the bait)” value is on record as 15.

With B4, the “Spectra (number of spectra for the prey in the purification of the bait)” value stood at 3.

For B5, the “Spectra (number of spectra for the prey in the purification of the bait)” value came to 11.

Staying with this test, now noted: bait Srrm4, sum of spectra over 2 replicates.
As for B1, the SpecSum stood at 20.

In turn, B2 had a SpecSum of 17.

B3 came in with a SpecSum of 22.

For the molecule B4, the SpecSum turned out to be 8.

With B5, the SpecSum is given as 24.
